Data published in US20190119348A1, “PARATHYROID HORMONE RECEPTOR 1 ANTAGONIST AND INVERSE AGONIST POLYPEPTIDES AND METHODS OF THEIR USE” (The General Hospital Corporation, priority 2016, published 2019).
Where no end group is shown, it is not given here.

Experiments:
hPTHR1-H223R (human) = hPTHR1-H223R (human) (UniProt Q03431); experiment: cell-based or functional assay
[1] = target: human parathyroid hormone receptor 1 (hPTHR1) (human) (UniProt Q03431); experiment: cell-based or functional assay
human PTHR1-H223R = target: T1, human PTHR1-H223R (Homo sapiens, UniProt Q03431, H223R); experiment: Inverse agonism on basal cAMP signaling in GHR-10 cells; assay type: cell-based; conditions: GHR-10 cells, from AUC, representative experiment
T1 construct: expressed in transfected cells; host or cells: GHR-10 (HEK-293 stably expressing GloSensor and PTHR1-H223R)
T1 sequence (Q03431 27-593 H223R): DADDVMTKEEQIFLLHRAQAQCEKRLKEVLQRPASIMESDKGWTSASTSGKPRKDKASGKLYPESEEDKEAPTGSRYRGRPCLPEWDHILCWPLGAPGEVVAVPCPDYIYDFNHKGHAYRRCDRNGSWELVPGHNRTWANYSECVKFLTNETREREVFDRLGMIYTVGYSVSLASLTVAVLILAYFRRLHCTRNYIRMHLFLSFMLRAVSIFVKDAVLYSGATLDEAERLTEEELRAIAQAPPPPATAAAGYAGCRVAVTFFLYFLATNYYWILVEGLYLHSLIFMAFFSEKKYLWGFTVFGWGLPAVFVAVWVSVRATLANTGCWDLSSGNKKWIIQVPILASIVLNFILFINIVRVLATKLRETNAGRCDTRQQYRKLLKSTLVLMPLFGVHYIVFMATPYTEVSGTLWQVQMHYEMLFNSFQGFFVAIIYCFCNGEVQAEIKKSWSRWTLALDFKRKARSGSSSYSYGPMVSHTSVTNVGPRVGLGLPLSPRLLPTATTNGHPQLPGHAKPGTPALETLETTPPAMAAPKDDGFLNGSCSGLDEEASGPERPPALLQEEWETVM
Experimental: cAMP signaling was assessed in the HEK293-derived or SaOS2-derived cell lines stably expressing the luciferase-based GloSensor™ cAMP reporter (Hattersley et al., Paper presented at: Novel Signaling Mechanisms and Bone Cell Biology 2014; Binkowski et al., Methods in molecular biology. 756:263-271). HEK-293 cells were further transfected to stably express the hPTHR1, hPTHR1-H223R, or hPTHR1-T410P. The cells were seeded into 96-well white plates and were assayed 24 to 48 hours post-confluency. Assays were performed at room temperature in CO2-independent culture media (Life Technologies, Corp., Carlsbad, Calif.) containing 0.1% BSA (CIDB). The cells were pre-loaded with luciferin (0.5 mM in CIDB) for 15 minutes, then PTH peptides were added at varying concentrations. cAMP-dependent luminescence was measured at two-minute intervals using a PerkinElmer Envision plate reader. The time at which maximum luminescence (cps) observed with agonist alone, typically at 10-20 minutes after agonist addition, was used to obtain data from wells containing antagonist with or without agonist, to thus generate antagonist ligand dose-response curves. The resulting cps values were then plotted against ligand concentration using GraphPad Prism 7.0 software and a four-parameter logistics curve fitting equation, which yielded parameters of inhibitory potency (pIC50).
These experiments were performed in HEK-293 cells stably transfected to express the GloSensor™ cAMP reporter along with a constitutively active mutant human PTHR1. The HEK-293 cells stably expressing GloSensor™ cAMP reporter along with a constitutively active mutant human PTHR1-H223R are GHR-10 cells. The HEK-293 cells stably expressing GloSensor™ cAMP reporter along with a constitutively active mutant human PTHR1-T410P are GTP-4 cells. The HEK-293 cells stably expressing GloSensor™ cAMP reporter along with a WT-PTHR1 are GP-2.3 cells. GP-2.3 cells were used as control. […] Effects on basal cAMP signaling over time were assessed during periods of direct ligand addition (FIGS. 15A-15F). The measurements were performed by recording GloSensor™ luminescence as counts per second (cps) using a PerkinElmer Envision plate reader. The data are illustrated in FIGS. 15A-15F. Data are from triplicate wells (means±SEM) of a single experiment representative of two others.
Persistence of the antagonist/inverse agonist effects (prolonged action) as follows. Effects of eight peptides on basal and PTH(1-34)-stimulated cAMP signaling by PTHR-H223R were assessed in GHR-10 cells (HEK-293-derived cells stably expressing glosensor cAMP reporter and PTHR1-H223R). Time courses of changes in cAMP levels were recorded in three consecutive phases:
1) after initial addition of a candidate antagonist/inverse agonist (1×10^−6 M-1×10^−9 M) to cells pre-loaded for […] with luciferin (left column);
2) after removal of unbound inverse agonist by extensive wash-out with buffer and replenishment with fresh luciferin-containing buffer (middle column); and
Control wells were treated with vehicle. GloSensor™ luminescence, as counts per second (cps), was recorded using a PerkinElmer Envision plate reader. Data are from duplicate wells (means±SEM) of a single experiment representative of two others. The results are illustrated in Table 7 and in FIGS. 16A-16C, 17A-17C, 18A-18C, 19A-19C, 20A-20C, 21A-21C, 22A-22C, and 23A-23C.
GHR10 cells were treated with vehicle or vehicle containing the indicated peptide for 24 minutes and cAMP-dependent luminescence was recorded at two-minute intervals. The cells were then washed to remove unbound ligand and media containing fresh luciferin was added, and cAMP luminescence was recorded for another 26 minutes. Percentage reduction was calculated from the area-under-the-curve (AUC) values derived from the time course plots using the equation: […]

Row | Reduction of basal cAMP, % vehicle; After ligand washout; GHR-10 cells (hPTHR1-H223R (human)) [% vehicle] | Reduction of basal cAMP, % vehicle; Ligand @ -6M; GHR-10 cells (hPTHR1-H223R (human)) [% vehicle] | IC50, antagonism of PTH(1-34) (0.3 nM)-induced cAMP response, SGS-72 cells [1] [nM] | pIC50, antagonism of PTH(1-34) (0.3 nM)-induced cAMP response, SGS-72 cells [1] | Reduction of basal cAMP, % vehicle, After ligand washout (human PTHR1-H223R; 26 minutes after washout of unbound ligand) [% vehicle] | Reduction of basal cAMP, % vehicle, Ligand @ −6M (human PTHR1-H223R; peptide 1×10^−6 M for 24 minutes) [% vehicle] | Substance
1 | 65 | 66 | 2.08 | 8.68 -log M |  |  | L11, dW12, W23-LA-PTH(7-36)-2001 (peptide)
2 | 62 | 63 | 2.75 | 8.56 -log M |  |  | Nle8, L11, dW12, W23-LA-PTH(5-36)-1999 (peptide)
3 | 71 | 70 | 2.1 | 8.68 -log M |  |  | Nle8, L11, dW12, W23-LA-PTH(7-36)-1997 (peptide)

The next lines start with the substance.

Row | Substance | Reduction of basal cAMP, % vehicle; After ligand washout; GHR-10 cells (hPTHR1-H223R (human)) [% vehicle] | Reduction of basal cAMP, % vehicle; Ligand @ -6M; GHR-10 cells (hPTHR1-H223R (human)) [% vehicle] | IC50, antagonism of PTH(1-34) (0.3 nM)-induced cAMP response, SGS-72 cells [1] [nM] | pIC50, antagonism of PTH(1-34) (0.3 nM)-induced cAMP response, SGS-72 cells [1] | Reduction of basal cAMP, % vehicle, After ligand washout (human PTHR1-H223R; 26 minutes after washout of unbound ligand) [% vehicle] | Reduction of basal cAMP, % vehicle, Ligand @ −6M (human PTHR1-H223R; peptide 1×10^−6 M for 24 minutes) [% vehicle]
4 | L11, dW12, W23-LA-PTH(5-36)-2003 (peptide) | 64 | 66 | 2.57 | 8.59 -log M |  | 
5 | LA-PTH(5-36)-2012 (IQLMHQRAKWIQDARRRAFLHKLIAEIHTAEI-NH2) [compound 2012] |  |  |  |  | −49 | −15
6 | Nle8, dW12, W23-LA-PTH(7-36)-1992 (peptide) | 40 | 51 | 1.55 | 8.81 -log M |  | 
7 | dW12, W23-LA-PTH(7-36)-1990 (peptide) | 39 | 50 | 1.23 | 8.91 -log M |  | 
